One series relates to patients. The settings on record: Rtx ref [5]–[7]; Ifx ref [8]–[10]; alemtuzumab ref [11]; vedolizumab ref [12]; adalimumab ref [10], [13], [14]; cited from earlier work. The text has this: However, a large subset of patients develops neutralizing antidrug antibodies (ADAs) that reduce their therapeutic efficacy ([1]) and induce allergic responses ([2]). As immunological tolerance is expected to regulate the response to self-sequences ([3]), almost all therapeutic antibodies are humanized, with various degrees of antibody humanization ([4]).

Series [1] in a line: Levels of anti-drug antibodies (ADAs) (bridging ELISA). Format: in vivo, human. On the technique in general: An ELISA detects its analyte on a solid surface through an enzyme-linked reagent.
Series [2] in a line: Levels of circulating Ifx or Rtx (bridging ELISA). Format: in vivo, human.
The subject of series [3] is HLA-DR molecules of dendritic cells (DCs). Put plainly: MHC-associated peptide proteomics (MAPPs) assay. Also on record: species or system human. How it is done:
Briefly, CD14 positive mononuclear cells were purified from PBMCs isolated from human buffy coats sampled from consented healthy donors (Blood Donation Center Bern, Bern, Switzerland) and differentiated into immature DCs ([37]). Immature DCs were matured by adding lipopolysaccharide (1 µg/mL, Sigma) and loaded separately with one of the chimeric antibodies. After incubation for 24 h at 37°C and 5% CO2, DCs were harvested, washed in PBS, and lysed in hypotonic buffer containing 1% Triton X-100. After immunoprecipitation of HLA-DR molecules with Mab L243-conjugated beads, peptides were eluted from HLA-DR molecules by adding 0.1% trifluoroacetic acid (Fluka, Buchs, Switzerland) at 37°C and lyophilized using an Eppendorf Concentrator 5301 (Eppendorf AG, Hamburg, Germany). Lyophilized peptides were resuspended in hydrophilic buffer containing 5% acetonitrile and 1.1% formic acid. Peptide composition was analyzed by liquid chromatography (nano capillary system, Dionex Corporation, Sunnyvale, CA, USA) on a self-packed fused-silica C18 reversed-phase nano-high-performance liquid chromatography column connected to a mass spectrometer (Q-Exactive, Thermo, CA, USA) via electrospray ionization (LC–ESI–MS/MS). Peptides were identified via a database search approach using the SEQUEST algorithm as detailed ([37]).

The next series deals with CD4 T cell lines. Put plainly: Peptide specificity of antibody-specific CD4 T cell lines from healthy donors (IFN-γ ELISPOT). Format: cell-based, human. The following applies: IFN-γ ELISPOT, antibody 3 µM on DCs, peptides 10 µg/mL. The text has this: Peripheral blood mononuclear cells (PBMCs) were obtained from blood cells collected at the Etablissement Français du Sang (EFS, Rungis, France), as buffy coat preparations from anonymous healthy donors who gave informed consent, in accordance with EFS guidelines. Antibody-specific CD4 T cell lines were generated as described previously ([28]). DCs were produced from plastic-adherent cells of PBMCs, while CD4 T cells were isolated from PBMCs by using magnetic microbeads (Miltenyi Biotech, Paris, France). DCs were loaded overnight at 37°C with the therapeutic antibody or with KLH used as a positive control (1 µM) and matured with lipopolysaccharide (1 µg/mL). CD4 T cells (200,000/w) were stimulated by protein-loaded DCs (20,000/w) and cultured during 21 days ([28]). Their peptide specificity was tested by interferon-γ (IFN-γ) ELISPOT ([28]). Spot number was determined by the AID ELISPOT Reader System (AID).
CD4 T cell lines were also raised against KLH to assess the ability of the donors to generate specific T cell responses (Figure S2 in Supplementary Material). Each independent T cell line (CD4 T cells present in a single well) was evaluated for its specificity using pools of 45 overlapping peptides encompassing the entire variable regions (VH and VL) of the therapeutic antibodies (Tables S3 and S4 in Supplementary Material), individual peptides, and DCs loaded with the therapeutic antibodies (Figure 1). […] HLA restriction was evaluated for T cell lines of donors #225 and #251 by inhibition experiments with anti-HLA class II antibodies.
T cells were incubated with autologous DCs alone (none) or with DCs previously loaded with each antibody (3 µM) or with autologous unloaded peripheral blood mononuclear cells (PBMCs) (no pool) or PBMCs loaded with a pool of peptides (10 µg/mL) (left panels) and with individual peptides (right panels).
Figure 2 Specificity and restriction of T cell lines generated from healthy donors. […] T cells were incubated with autologous unloaded peripheral blood mononuclear cells (PBMCs) (none) and with PBMCs loaded with individual peptides. […] (B) For inhibition assays, anti-HLA-DR (L243), -DQ (SPVL3), and -DP (B7/21) antibodies were added at 10 µg/mL to the IFN-γ ELISPOT.
Donors are identified by a number.

[4] abbreviates: monocyte-derived DCs of 34 healthy donors exposed to Rtx or Ifx, LC–ESI–MS/MS.

This is an account of results in publication PMC5418239, “Characterization of CD4 T Cell Epitopes of Infliximab and Rituximab Identified from Healthy Donors” (Frontiers in Immunology, 2017).

Take alemtuzumab: humanized antibody: in the series with patients, the “induction of ADAs in patients” value is recorded as “known to generate ADAs in many patients”.
With vedolizumab: humanized antibody, in the series with patients, the “induction of ADAs in patients” value was “known to generate ADAs in many patients”.
Take “Ifx: chimeric antibody anti-TNFα infliximab (Remicade)”: the ADA level is on record as 63 U/ml in series [1] (patient C, uveitis); 61 U/ml in series [1] (patient D, Crohn’s); over 200 U/ml in series [1] (patient E, Crohn’s); over 200 U/ml in series [1] (patient G, Crohn’s); over 200 U/ml in series [1] (patient I, Crohn’s); 95 U/ml in series [1] (patient J, Crohn’s). Besides, the “induction of ADAs in patients” value with patients is given as “known to elicit specific ADAs in multiple patients”. Moreover, the circulating drug level is under 0.1 µg/mL in series [2] (patient C, uveitis); 0 µg/mL in series [2] (patient D, Crohn’s); under 0.1 µg/mL in series [2] (patient E, Crohn’s); 0.13 µg/mL in series [2] (patient G, Crohn’s); 0.11 µg/mL in series [2] (patient I, Crohn’s); under 0.1 µg/mL in series [2] (patient J, Crohn’s). Further, the “clusters that overlapped CDR regions” value in series [3] (monocyte-derived DCs of 34 healthy donors) is “four of the eight”. Further, the “number of clusters of HLA-DR-associated peptides in VH” value in series [3] (setting [4]) is given as “four”. The “number of clusters of HLA-DR-associated peptides in VL” value in series [3] (setting [4]) is “four”. The “specificity of T cell line 113.6” value in the series on CD4 T cell lines (donor #113) was “not for Ifx”. Besides, in the series on CD4 T cell lines (donor #247), the “specificity of T cell line 247.26” value was “specific for Ifx”.
On to adalimumab, for which the “induction of ADAs in patients” value in the series with patients is on record as “known to generate ADAs in many patients”.
